{"source": "paper PMC8481266", "about": "“Structural and functional characterization of the bacterial biofilm activator RemA” (Nature Communications, 2021)", "key": {"[1]": {"target": "(His)-GB1-tagged (Gt)RemA (Geobacillus thermodenitrificans NG-80)", "test": "SEC; SEC analysis of the (His)-GB1 constructs of (Bs)RemA and (Gt)RemA (Supplementary Figs. 2a, b)"}, "[2]": {"target": "(Gt)RemA, RemA from Geobacillus thermodenitrificans, wild type, with N-terminal His-tag (Geobacillus thermodenitrificans NG-80)", "test": "crystal structure; sitting-drop crystallisation at 20 °C; X-ray data at ESRF; wild type by Se-SAD, variants by molecular replacement"}, "[3]": {"target": "(Gt)RemA, RemA from Geobacillus thermodenitrificans, wild type, with N-terminal His-tag (Geobacillus thermodenitrificans NG-80)", "test": "SEC-MALS; analytical SEC-MALS of the two major SEC peaks; (Gt)RemA at 500 µM (Fig. 1b); R18W variant in Supplementary Fig. 1d"}, "[4]": {"target": "(Gt)RemA, RemA from Geobacillus thermodenitrificans, wild type, with N-terminal His-tag (Geobacillus thermodenitrificans NG-80)", "test": "crystal structure; sitting-drop crystallisation at 20 °C; X-ray data at ESRF; wild type by Se-SAD, variants by molecular replacement", "remark": "listed apart in the source"}, "[5]": {"target": "(Gt)RemA-R18W (Geobacillus thermodenitrificans NG-80)", "test": "SEC-MALS; analytical SEC-MALS of the two major SEC peaks; (Gt)RemA at 500 µM (Fig. 1b); R18W variant in Supplementary Fig. 1d"}, "[6]": {"target": "(Gt)RemA-R18W (Geobacillus thermodenitrificans NG-80)", "test": "crystal structure; sitting-drop crystallisation at 20 °C; X-ray data at ESRF; wild type by Se-SAD, variants by molecular replacement"}, "[7]": {"target": "T1, (Gt)RemA wild type, tag-free (Geobacillus thermodenitrificans NG-80) (UniProt A4IM41)", "T1 sequence": "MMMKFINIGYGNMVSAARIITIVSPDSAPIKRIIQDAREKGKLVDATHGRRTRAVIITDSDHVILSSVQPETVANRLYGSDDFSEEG", "test": "EMSA", "conditions": "20 mM HEPES pH 8.0, 1000 mM NaCl, 20 mM MgCl2, 20 mM KCl, 0.3 ug/ml BSA, 25 ug/ml herring sperm DNA, 10% glycerol, 0.25 mg/ml Orange-G; 1 pmol DNA in 14.5 ul …"}, "[8]": {"target": "T2, (Gt)RemA-R50A R50A (Geobacillus thermodenitrificans NG-80) (UniProt A4IM41)", "T2 sequence": "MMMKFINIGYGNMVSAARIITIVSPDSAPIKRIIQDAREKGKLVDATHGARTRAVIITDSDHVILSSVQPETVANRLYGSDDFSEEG", "test": "EMSA", "conditions": "20 mM HEPES pH 8.0, 1000 mM NaCl, 20 mM MgCl2, 20 mM KCl, 0.3 ug/ml BSA, 25 ug/ml herring sperm DNA, 10% glycerol, 0.25 mg/ml Orange-G; 1 pmol DNA in 14.5 ul …"}, "[9]": {"target": "T3, (Gt)RemA-R18W R18W (Geobacillus thermodenitrificans NG-80) (UniProt A4IM41)", "T3 sequence": "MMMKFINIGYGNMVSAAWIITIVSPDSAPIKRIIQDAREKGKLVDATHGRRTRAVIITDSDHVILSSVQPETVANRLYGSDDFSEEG", "test": "EMSA", "conditions": "20 mM HEPES pH 8.0, 1000 mM NaCl, 20 mM MgCl2, 20 mM KCl, 0.3 ug/ml BSA, 25 ug/ml herring sperm DNA, 10% glycerol, 0.25 mg/ml Orange-G; 1 pmol DNA in 14.5 ul …"}, "[10]": {"target": "T4, (Gt)RemA wild type, His-tagged (Geobacillus thermodenitrificans NG-80) (UniProt A4IM41)", "T4 sequence": "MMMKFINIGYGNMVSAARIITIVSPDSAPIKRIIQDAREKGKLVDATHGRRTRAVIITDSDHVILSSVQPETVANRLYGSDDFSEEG", "test": "EMSA", "conditions": "20 mM HEPES pH 8.0, 1000 mM NaCl, 20 mM MgCl2, 20 mM KCl, 0.3 ug/ml BSA, 25 ug/ml herring sperm DNA, 10% glycerol, 0.25 mg/ml Orange-G; 1 pmol DNA in 14.5 ul …"}, "[11]": {"target": "T5, (Gt)RemA-R51A R51A (Geobacillus thermodenitrificans NG-80) (UniProt A4IM41)", "T5 sequence": "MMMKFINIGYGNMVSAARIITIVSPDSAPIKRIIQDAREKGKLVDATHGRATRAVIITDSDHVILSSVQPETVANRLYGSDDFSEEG", "test": "EMSA", "conditions": "20 mM HEPES pH 8.0, 1000 mM NaCl, 20 mM MgCl2, 20 mM KCl, 0.3 ug/ml BSA, 25 ug/ml herring sperm DNA, 10% glycerol, 0.25 mg/ml Orange-G; 1 pmol DNA in 14.5 ul …"}, "[12]": {"target": "(Gt)RemA-R51A/R53A (Geobacillus thermodenitrificans NG-80)", "test": "crystal structure; sitting-drop crystallisation at 20 °C; X-ray data at ESRF; wild type by Se-SAD, variants by molecular replacement"}, "[13]": {"target": "the molecule itself", "test": "SEC; SEC analysis of the (His)-GB1 constructs of (Bs)RemA and (Gt)RemA (Supplementary Figs. 2a, b)"}}, "note": "“And” between values parts separate entries of the source, which are not always exact repeats. Identical values can stand only once."}
{"molecule": "(His)-GB1-tagged (Gt)RemA (natural protein)", "values": [{"measurement": "stoichiometry N", "setting": "[1]", "result": 8}]}
{"molecule": "(Gt)RemA, RemA from Geobacillus thermodenitrificans, wild type, with N-terminal His-tag (natural protein)", "values": [{"measurement": "stoichiometry N", "setting": "[2]", "result": 16}, {"measurement": "stoichiometry N", "setting": "[3]", "result": "16 and 8"}, {"measurement": "stoichiometry N", "setting": "[4]", "result": 8}]}
{"molecule": "(Gt)RemA-R18W (natural protein)", "values": [{"measurement": "stoichiometry N", "setting": "[5]", "result": "14 and 7"}, {"measurement": "stoichiometry N", "setting": "[6]", "result": 7}]}
{"molecule": "CTCCTCTATTCCTGTCGTTATTTCGTTCATTATAAGGAATTTTTCGTTCTTTATAAAATTTAAAATAATAAGGGAAGTGCAGTAAATTAGAGGAAAATCATGATTTTGTTCTCCAAAGAGAACTTATTGGCTTATTTTGCAATTTTTAAATAATAACGTTTTCTTTTATAATCCAATCATTAACAGAAAGGGGCGCGGGAAGCCAGCCGCGGGAAGGCTGAAGGCTATGAATACATGAATGAGAATATGAGTTTCAAAGAATTATATGCGATTGTCAGACACAGATTCG (double strand) [PepsA 289 bp fragment]", "values": [{"measurement": "binding", "setting": "[7]", "result": "binds"}, {"measurement": "binding", "setting": "[8]", "result": "no binding"}, {"measurement": "binding", "setting": "[9]", "result": "binds"}, {"measurement": "binding", "setting": "[10]", "result": "binds"}, {"measurement": "binding", "setting": "[11]", "result": "no binding"}]}
{"molecule": "(Gt)RemA-R51A/R53A (natural protein)", "values": [{"measurement": "stoichiometry N", "setting": "[12]", "result": 8}]}
{"molecule": "(His)-GB1-tagged (Bs)RemA (natural protein, B. subtilis strain 3610, UniProt Q7WY72 1-89, looked up, RemA of Bacillus subtilis strain 3610; MW 9.6 kDa; A TEV cleavage site stands between the solubility tag and RemA; removal of the tag led to precipitation; also called His-GB1-(Bs)RemA; (Bs)RemA (His)-GB1 construct; not shown: His, N-terminal, kept) MTIKLINIGFGNIISANRMISIVSPESAPIKRMIQDARDRGMLIDATYGRRTRAVVVMDSDHIILSAVQPETVAHRLSVKEEIMDEGQG", "values": [{"measurement": "stoichiometry N", "setting": "[13]", "result": 8}]}
